Measurements reported in paper PMC9927260.

System: IBV H120 whole virus (target protein not identified) (Infectious bronchitis virus, live vaccine strain H120)
Assay: direct ELAA

How did the Kd turn out when “CACGTCTCTCTATTCGCTCCCTTCGCTAATTGTTCTCTCC [Apt_IBV02]” was run?
The Kd was 58.2 nM.

Which Kd does the source give for “CAGACTTTGTTCAGCTCCTCGACTCTTCATTCCCTCCCTT [Apt_IBV03]” here?
Its Kd is 109 nM.

With “CCAGTATCATCCCTATCGTAGTCCTCAACAACCCCCTACA [Apt_IBV04]” as the sequence, how does the Kd read?
Its Kd is 99.9 nM.

With “CCCCAATCACAGTTAATCCTCGTTCCTATATCTCCCACAC [Apt_IBV01]” as the sequence, how does the Kd read?
The Kd was 99.2 nM.

For “GACTTCCCTCTTTGTGTGTCATTCGGTGTTCTCGCTTTTG [Apt_IBV05]”, which Kd is on record?
Its Kd is 59.4 nM.
